In US11839630B2, “CAR-T cells targeting IL-1RAP and their use” (ETABLISSEMENT FRANCAIS DU SANG, priority 2017, dated 2023):
“And” between values parts separate entries of the source, which are not always exact repeats. Equal entries are not always repeated.

Legend:
[1] = system: IL-1RAP-positive (KU812) cell line; experiment: FACS screening of hybridoma subclones; assay type: binding, human; conditions: 5 monoclonal antibody subclones
From the text: Briefly, BALB/c mice (5 weeks, Charles River) were immunized either by foot pad (n=3) or intraperitoneally (n=5) with a recombinant fusion protein consisting of the extra cellular part of IL-1RAP (NM_002182.2, NCBI) and the Fc-part of human IgG1 (R&D Systems, Lille, France). Lymph nodes or spleens cells and blood samples were harvested and cells were fused with the mouse myeloma cell line, then screened by FACS analysis (Becton Dickinson), against IL-1RAP-positive (KU812) and −negative (Raji, KG1) cell lines.
Screening of hybridoma allowed to select 5 monoclonal antibodies subclones that discriminate IL-1RAP positive (KU812 or KG-1 respectively AML or Phi^+p^210 CML) from negative cell lines (Tom-1, NALM-20, Jurkat or Raji, respectively Phi+^p190 B-ALL, Phi-B-ALL, T-ALL or Burkitt's lymphoma).
Molecular characterization was performed by Sanger sequencing of cloned PCR products amplification obtained with degenerated primers specific of the FR1 and constant regions of the heavy and light chains according to the protocol of Wang. Z., et al (J. Immunol. Methods, 2000; 233, pp 167-77). Identification of V-D-J-C gene rearrangement and CDR3 region was obtained after alignment of consensus nucleotide sequences against the IMGT® database using V-QUEST online tool according to Brochet X., et al. (Nucleic Acids Res., 2008, 36, pp 503-8).

[2] = molecular target: T1, IL-1RAP (Homo sapiens, UniProt Q9NPH3); experiment: Immunostaining of FDA standard frozen normal tissue array; assay type: binding; set-up: FDA standard frozen tissue arrays, including 90 tissue cores (30 organs) of 3 individual donors per organ; tissue US Biomax; host or cells: FDA standard frozen normal human tissue array (30 organs, 3 donors each); key to Staining intensity (0 to 3+): negative (0); weak staining (1+); moderate staining (2+); strong staining (3+); conditions: for normal tissues in which staining was detected: 30 normal human tissues, 3 donors per organ
T1 sequence (Q9NPH3 21-570): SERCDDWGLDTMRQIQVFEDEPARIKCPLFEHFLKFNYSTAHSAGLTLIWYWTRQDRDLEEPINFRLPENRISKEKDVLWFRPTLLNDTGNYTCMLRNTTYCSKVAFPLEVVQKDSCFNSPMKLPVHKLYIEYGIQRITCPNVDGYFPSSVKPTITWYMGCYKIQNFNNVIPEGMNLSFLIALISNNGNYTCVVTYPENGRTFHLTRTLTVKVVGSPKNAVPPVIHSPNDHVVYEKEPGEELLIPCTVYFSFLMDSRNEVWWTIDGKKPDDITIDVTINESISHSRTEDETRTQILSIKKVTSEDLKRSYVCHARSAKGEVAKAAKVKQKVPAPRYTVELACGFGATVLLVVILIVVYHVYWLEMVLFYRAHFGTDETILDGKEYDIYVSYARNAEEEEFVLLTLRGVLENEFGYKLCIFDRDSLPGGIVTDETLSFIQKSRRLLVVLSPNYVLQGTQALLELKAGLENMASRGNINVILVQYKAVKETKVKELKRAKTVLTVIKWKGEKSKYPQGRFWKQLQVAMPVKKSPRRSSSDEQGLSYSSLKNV
From the text: FIG. 22: (A) Tissue microarray. Representative #A3C3 staining of an US Food and Drug Administration standard frozen tissue array, including 90 tissue cores (30 organs) of 3 individual donors per organ (US Biomax, Rockville, MD, USA). Immunostaining was detected using the UltraView Universal DAB Detection Kit (Ventana, USA). Images were acquired and analyzed with NDP.view 2.0 software. […] (Scale bars, 100 μm.) High IL-1RAP (KU812)— or negative (Raji)-expressing cell lines were respectively used as positive or negative controls. (B) IL-1RAP R&D (red) or #A3C3 (blue) staining of HMEC-1 dermal endothelial cell line. Isotype IgG1 (gray) is depicted as overlay. RFI is provided for both staining.
In order to study specific or non-target tissue binding, FDA standard frozen tissue arrays, including 90 tissue cores (30 organs) of 3 individual donors per organ (US Biomax, Rockville, United States) were incubated as previously described. Immunostaining was detected using UltraView Universal DAB Detection Kit (Ventana, USA). Images were acquired and analyzed with NDP.view 2 software. High IL-1RAP (KU812) or negative (Raji) expressing cell lines were respectively used as positive or negative controls. The staining intensity was graduated as follows: negative (0), weak staining (1+), moderate staining (2+), or strong staining (3+). […]

B1: #E3C3: mouse anti-hIL-1RAP monoclonal antibody subclone generated by standard hybridoma technique; VH SEQ ID NO: 2, VL SEQ ID NO: 4 (antibody, V domains shown)
VH: MGWSCIILFLVATATGVNSQVQLQQPGAELMMPGASVKVSCEASGYTFTDSWMHWVKQRPGQGLEWIGAIDPSDSYTTYNQKFTGKATLSVDESSNTAYMQLSSLTSEDSAVYYCARYYSGSNYISPFPYWGQGTLVTVSA
VL: MESQIQVFVFVFLWLSGVDGDIVMTQSHKFMSTSVGDRVTITCKASLDVSTAVAWYQQKPGQSPKLLIYSASYRYTGVPDRFTGSGSGTDFTFTISSVQAEDLAVYYCQQHYSPPFTFGSGTNLEIK
modifications: Amino acid sequence of chain H (VH) of murine scFv anti-IL-1RAP; Amino acid sequence of chain K (VL) of murine scFv anti-IL-1RAP
relative fluorescence intensity (RFI) by cytometry among subclones [1]: highest relative fluorescence intensity | normal tissues in which staining was detected [2]: only 6 tissues as Lymph node, colon, small intestine, placenta, stomach and prostate | normal tissues in which staining was detected ([2]; listed as #A3C3): only six tissues: lymph node, prostate, skeletal muscle, stomach, colon and small intestine, and pancreas | Staining intensity (0 to 3+) ([2]; Adrenal gland, replicates): 0 | Staining intensity (0 to 3+) ([2]; Cerebellum tissue, replicates): 0 | Comments: epithelial cells stained ([2]; Colon): Epithelial cells (~30%); | Comments: inflammatory elements stained ([2]; Colon): inflammatory elements (100%) | Staining intensity (0 to 3+) ([2]; Colon, replicates): 3+ | Staining intensity (0 to 3+) ([2]; Esophagus, replicates): 0 | Staining intensity (0 to 3+) ([2]; Heart, replicates): 0 | Staining intensity (0 to 3+) ([2]; Kidney, replicates): 0 | Staining intensity (0 to 3+) ([2]; Liver, replicates): 0 | Comments: stained elements ([2]; Lung): Few inflammatory elements | Staining intensity (0 to 3+) ([2]; Lung, replicates): 2+ | Comments: endothelial cells stained ([2]; Lymph node): ~30% of endothelial cells | Staining intensity (0 to 3+) ([2]; Lymph node, replicates, listed as mAb#A3C3): 2+ and 1+ | Staining intensity (0 to 3+) ([2]; Ovary, replicates): 0 | Staining intensity (0 to 3+) ([2]; Pancreas, replicates): 1+ | Staining intensity (0 to 3+) ([2]; Peripheral nerve, replicates): 0 | Staining intensity (0 to 3+) ([2]; Pituitary gland, replicates): 0 | Comments: cytotrophoblast cells stained ([2]; Placenta): Cytotrophoblast cells (~10%) | Staining intensity (0 to 3+) ([2]; Placenta, replicates): 0 | Comments: endothelial cells stained ([2]; Prostate): ~10% of endothelial cells | Staining intensity (0 to 3+) ([2]; Prostate, replicates, listed as mAb#A3C3): 1+ (2×) and 0 (4×) | Staining intensity (0 to 3+) ([2]; Salivary gland, replicates): 0 | Comments: endothelial cells stained ([2]; Skeletal muscle): ~10% of endothelial cells | Staining intensity (0 to 3+) ([2]; Skeletal muscle, replicates (first listing), listed as mAb#A3C3): 1+ and 0 (2×) | Staining intensity (0 to 3+) ([2]; Skeletal muscle, replicates (second listing)): 0 | Staining intensity (0 to 3+) ([2]; Skin, replicates): 0 | Comments: epithelial cells stained ([2]; Small intestine): Epithelial cells (~30%); | Comments: inflammatory elements stained ([2]; Small intestine): inflammatory elements (100%) | Staining intensity (0 to 3+) ([2]; Small intestine, replicates, listed as mAb#A3C3): 2+ and 0 and 1+ | Staining intensity (0 to 3+) ([2]; Smooth muscle, replicates): 0 | Staining intensity (0 to 3+) ([2]; Spinal cord, replicates): 0 | Comments: stained elements ([2]; Spleen): Necrotic elements | Staining intensity (0 to 3+) ([2]; Spleen, replicates): 3+ | Comments: epithelial cells stained ([2]; Stomach): few epithelial cells <10% | Comments: gastric mucosa cells stained ([2]; Stomach): Few gastric mucosa cells (~10%); | Staining intensity (0 to 3+) ([2]; Stomach, replicates, listed as mAb#A3C3): 1+ and 0 (2×) | Staining intensity (0 to 3+) ([2]; Testis, replicates): 0 | Staining intensity (0 to 3+) ([2]; Thyroid gland, replicates): 0 | Staining intensity (0 to 3+) ([2]; Ureter, replicates): 0 | Staining intensity (0 to 3+) ([2]; Uterine cervix, replicates): 0
